Results from patent US20250122266A1, “SMART SINGLE-DOMAIN INTRABODIES WITH PRECISION SWITCHES FOR BIOMEDICAL APPLICATIONS” (THE TEXAS A&M UNIVERSITY SYSTEM, priority 2020, published 2025).

Columns and labels:
[1] = target: Mito-mCh (AKAP1-mCh, mitochondria-anchored mCherry) (human) (UniProt Q92667); assay: mitochondria translocation assay in HeLa cells, 5 µM caffeine
[2] = target: Mito-mCh (AKAP1-mCh, mitochondria-anchored mCherry) (human) (UniProt Q92667); assay: mitochondria translocation assay in HeLa cells, caffeine washed out
[3] = target: Mito-mCh (AKAP1-mCh, mitochondria-anchored mCherry) (human) (UniProt Q92667); assay: Mito-to-cytosol ratio of GFP-caffebody in HeLa cells against caffeine dose; the concentration is that of caffeine, not of a protein
[4] = target: Mito-mCh (AKAP1-mCh, mitochondria-anchored mCherry) (human) (UniProt Q92667); assay: Mito-to-cytosol ratio of GFP-rapabody in HeLa cells against rapamycin dose; the concentration is that of rapamycin, not of a protein
[5] = target: NE-tethered SH2 domain of Abl kinase (SH2 fused with mEmerald-lamin A) (UniProt P00519); assay: NE/NP ratio of mCh signal in HeLa cells over light-dark cycles
[6] = target: ER anchored mCh (mCh fused with human Sac1 residues 521-587) (human) (UniProt Q9NTJ5); assay: cytosol-to-ER translocation in HeLa cells under light
[7] = target: Mito-mCh (AKAP1-mCh, mitochondria-anchored mCherry) (human) (UniProt Q92667); assay: cytosol-to-mitochondria translocation in HeLa cells under light

B1: GFP-caffebody (anti-mCh nanobody LaM8 with 2xacVHH in the S3 loop) (VHH, not shown: large carriers)
chain: MAQVQLVESGGGLVQAGGSLRLSCAVSGRPFSEYNLGWFRQAPGKEREFVARIRSSGTTVYTDSVKGRFSASRDNAEVQLQASGGGLVQAGGSLRLSCTASGRTGTIYSMAWFRQAPGKEREFLATVGWSSGITYYMDSVKGRFTISRDNAKNSAYLQMNSLKPEDTAVYYCTATRAYSVGYDYWGQGTQVTVSHAAAGAPVPYPDPLEPREQKLISEEDLLEAVYSGGGGGGGSGGGGGGGSGGGGGGGSGEVQLQASGGGLVQAGGSLRLSCTASGRTGTIYSMAWFRQAPGKEREFLATVGWSSGITYYMDSVKGRFTISRDNAKNSAYLQMNSLKPEDTAVYYCTATRAYSVGYDYWGQGTQVTVSKNMGYLQLNSLEPEDTAVYYCAMSRVDTDSPAFYDYWGQGTQVTVSTPRS
half-life of caffeine-induced translocation to the antigen (t½, on) [1]: 16.3 s
deactivation half-life after withdrawal of caffeine [2]: 23.6 s
EC50 of caffeine (dose of the small-molecule switch) for binding to the antigen [3]: 2300 nM

B2: GFP-rapabody (anti-mCh nanobody LaM8 with UniRapR in the S3 loop) (VHH, not shown: large carriers)
chain: QLVESGGGLVQAGGSLRLSCAVSGRPFSEYNLGWFRQAPGKEREFVARIRSSGTTVYTDSVKGRFSASRDNATCVVHYTGMLEDGKKFDSSRDRNKPFKFMLGKQEVIRGWEEGVAQMSVGQRAKLTISPDYAYGATGHGSGSGSGVKDLLQAWDLYYHVFRRISGPPGPGSGLWHEMWHEGLEEASRLYFGERNVKGMFEVLEPLHAMMERGPQTLKETSFNQAYGRDLMEAQEWCRKYMKSGSSGGSGSGIIPPHATLVFDVELLKLEKNMGYLQLNSLEPEDTAVYYCAMSRVDTDSPAFYDYWGQGTQVTVSTPRS
EC50 of rapamycin (dose of the small-molecule switch) for release from the antigen [4]: 1600 nM

B3: mCh-moonbody (anti-SH2 moonbody, variant S5.1) (designed binder, not shown: large carriers)
chain: VSSVPTKLEVVDATPTSLKISWDAYYSSWQNVKYYRITYGETGGDSPVQEFTVPGYYSTATISGLKPGSGLATTLERIEKNFVITDPRLPDNPIIFASDSFLQLTEYSREEILGRNCRFLQGPETDRATVRKIRDAIDNQTEVTVQLINYTKSGKKFWNLFHLQPMRDQKGDVQYFIGVQLDGTEHVRDAAEREGVMLIKKTAENIDEAAKELGVDYTITVYAYDTFFPGYEPNSPISINYRT
activation half-life (light-induced dissociation from the antigen) [5]: 7.8 s
deactivation half-life (return to the antigen in the dark) [5]: 46.5 s

B4: GFP-2xsunbody (dimeric concatemer of sunbody) (VHH, not shown: large carriers)
chain: LATTLERIEKNFVITDPRLPDNPIIFASDSFLQLTEYSREEILGRNCRFLQGPETDRATVRKIRDAIDNQTEVTVQLINYTKSGKKFWNLFHLQPMRDQKGDVQYFIGVQLDGTEHVRDAAEREGVMLIKKTAENIDEAAKELKLMAQVQLVESGGGLVQAGGSLRLSCAVSGRPFSEYNLGWFRQAPGKEREFVARIRSSGTTVYTDSVKGRFSASRDNALERIEKNFVITDPRLPDNPIIFASDSFLQLTEYSREEILGRNCRFLQGPETDRATVRKIRDAIDNQTEVTVQLINYTKSGKKFWNLFHLQPMRDQKGDVQYFIGVQLDGTEHVRDAAEREGVMLIKKTAENIDEAAKNMGYLQLNSLEPEDTAVYYCAMSRVDTDSPAFYDYWGQGTQVTVSTPRSLATTLERIEKNFVITDPRLPDNPIIFASDSFLQLTEYSREEILGRNCRFLQGPETDRATVRKIRDAIDNQTEVTVQLINYTKSGKKFWNLFHLQPMRDQKGDVQYFIGVQLDGTEHVRDAAEREGVMLIKKTAENIDEAAKELKLMAQVQLVESGGGLVQAGGSLRLSCAVSGRPFSEYNLGWFRQAPGKEREFVARIRSSGTTVYTDSVKGRFSASRDNALERIEKNFVITDPRLPDNPIIFASDSFLQLTEYSREEILGRNCRFLQGPETDRATVRKIRDAIDNQTEVTVQLINYTKSGKKFWNLFHLQPMRDQKGDVQYFIGVQLDGTEHVRDAAEREGVMLIKKTAENIDEAAKNMGYLQLNSLEPEDTAVYYCAMSRVDTDSPAFYDYWGQGTQVTVSTPRS
fold increase in the signal-to-background ratio against 1x sunbody [6]: > 2 fold
fold increase in the signal-to-background ratio against 1x sunbody [7]: > 2 fold
